Paper doi:10.1101/2022.11.11.516098

How the values were obtained:
MLEΔG [1] = target: T1, MLEΔG (UniProt P24785 1-1158); assay: cryo-EM
MLEΔG [2] = target: T1, MLEΔG; assay: fluorescence polarization
MLEΔGin = MLEΔGin (UniProt P24785 1-1158, E195C;S633C); assay: fluorescence polarization

Binder: UUUUUUUUUU (ssRNA) [U10 RNA]
- binding result (MLEΔG [1]): binds

Binder: CCUCUUUCUUUC (ssRNA) [UUC RNA (fluorescein)]
- IC50 (MLEΔG [2]): 302 ± 43 nM
- IC50 (MLEΔGin): 280 ± 19 nM

B1: SL7 (SL7mod-UUC) RNA (structured_RNA)
RNA: GUGUAAAAUGUUGCUAGCAAAUAUAUAUGCUAGUAACGUUUUACGCCCUCUUUCUUUCUU
- apparent K (half saturation) (MLEΔG [2]): 16 nM
